These results are taken from IntAct's records for PubMed 26192437.

B1: CDK5 regulatory subunit-associated protein 2 (Homo sapiens), Q96SN8 (parent)
chain: MMDLVLEEDVTVPGTLSGCSGLVPSVPDDLDGINPNAGLGNGLLPNVSEETVSPTRARNMKDFENQITELKKENFNLKLRIYFLEERMQQEFHGPTEHIYKTNIELKVEVESLKRELQEREQLLIKASKAVESLAEAGGSEIQRVKEDARKKVQQVEDLLTKRILLLEKDVTAAQAELEKAFAGTETEKALRLRLESKLSEMKKMHEGDLAMALVLDEKDRLIEELKLSLKSKEALIQCLKEEKSQMACPDENVSSGELRGLCAAPREEKERETEAAQMEHQKERNSFEERIQALEEDLREKEREIATEKKNSLKRDKAIQGLTMALKSKEKKVEELNSEIEKLSAAFAKAREALQKAQTQEFQGSEDYETALSGKEALSAALRSQNLTKSTENHRLRRSIKKITQELSDLQQERERLEKDLEEAHREKSKGDCTIRDLRNEVEKLRNEVNEREKAMENRYKSLLSESNKKLHNQEQVIKHLTESTNQKDVLLQKFNEKDLEVIQQNCYLMAAEDLELRSEGLITEKCSSQQPPGSKTIFSKEKKQSSDYEELIQVLKKEQDIYTHLVKSLQESDSINNLQAELNKIFALRKQLEQDVLSYQNLRKTLEEQISEIRRREEESFSLYSDQTSYLSICLEENNRFQVEHFSQEELKKKVSDLIQLVKELYTDNQHLKKTIFDLSCMGFQGNGFPDRLASTEQTELLASKEDEDTIKIGEDDEINFLSDQHLQQSNEIMKDLSKGGCKNGYLRHTESKISDCDGAHAPGCLEEGAFINLLAPLFNEKATLLLESRPDLLKVVRELLLGQLFLTEQEVSGEHLDGKTEKTPKQKGELVHFVQTNSFSKPHDELKLSCEAQLVKAGEVPKVGLKDASVQTVATEGDLLRFKHEATREAWEEKPINTALSAEHRPENLHGVPGWQAALLSLPGITNREAKKSRLPILIKPSRSLGNMYRLPATQEVVTQLQSQILELQGELKEFKTCNKQLHQKLILAEAVMEGRPTPDKTLLNAQPPVGAAYQDSPGEQKGIKTTSSVWRDKEMDSDQQRSYEIDSEICPPDDLASLPSCKENPEDVLSPTSVATYLSSKSQPSAKVSVMGTDQSESINTSNETEYLKQKIHDLETELEGYQNFIFQLQKHSQCSEAIITVLCGTEGAQDGLSKPKNGSDGEEMTFSSLHQVRYVKHVKILGPLAPEMIDSRVLENLKQQLEEQEYKLQKEQNLNMQLFSEIHNLQNKFRDLSPPRYDSLVQSQARELSLQRQQIKDGHGICVISRQHMNTMIKAFEELLQASDVDYCVAEGFQEQLNQCAELLEKLEKLFLNGKSVGVEMNTQNELMERIEEDNLTYQHLLPESPEPSASHALSDYETSEKSFFSRDQKQDNETEKTSVMVNSFSQDLLMEHIQEIRTLRKRLEESIKTNEKLRKQLERQGSEFVQGSTSIFASGSELHSSLTSEIHFLRKQNQALNAMLIKGSRDKQKENDKLRESLSRKTVSLEHLQREYASVKEENERLQKEGSEKERHNQQLIQEVRCSGQELSRVQEEVKLRQQLLSQNDKLLQSLRVELKAYEKLDEEHRRLREASGEGWKGQDPFRDLHSLLMEIQALRLQLERSIETSSTLQSRLKEQLARGAEKAQEGALTLAVQAVSIPEVPLQPDKHDGDKYPMESDNSFDLFDSSQAVTPKSVSETPPLSGNDTDSLSCDSGSSATSTPCVSRLVTGHHLWASKNGRHVLGLIEDYEALLKQISQGQRLLAEMDIQTQEAPSSTSQELGTKGPHPAPLSKFVSSVSTAKLTLEEAYRRLKLLWRVSLPEDGQCPLHCEQIGEMKAEVTKLHKKLFEQEKKLQNTMKLLQLSKRQEKVIFDQLVVTHKILRKARGNLELRPGGAHPGTCSPSRPGS

The variants in the assay derive from B1. Conditions: with tbg1_human TUBG1, P23258.
Chain of tbg1_human TUBG1, P23258 (P23258 whole entry): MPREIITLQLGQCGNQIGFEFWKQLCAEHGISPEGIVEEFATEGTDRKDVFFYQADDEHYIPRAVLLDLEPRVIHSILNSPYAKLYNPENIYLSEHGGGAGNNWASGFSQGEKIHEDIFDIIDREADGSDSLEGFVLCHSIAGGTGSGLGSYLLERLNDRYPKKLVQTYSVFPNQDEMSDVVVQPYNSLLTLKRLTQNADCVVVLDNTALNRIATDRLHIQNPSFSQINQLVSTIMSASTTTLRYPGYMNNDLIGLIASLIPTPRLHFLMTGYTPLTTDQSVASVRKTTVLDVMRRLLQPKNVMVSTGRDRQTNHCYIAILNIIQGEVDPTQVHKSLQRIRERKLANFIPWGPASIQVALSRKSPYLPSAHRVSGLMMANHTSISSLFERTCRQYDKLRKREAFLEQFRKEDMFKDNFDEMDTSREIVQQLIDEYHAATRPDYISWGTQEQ
As for S140A, the “effect of a mutation on the interaction” value was “decreasing interaction strength”.
